Laboratory results as given in patent US20020150536, “Nucleic acid ligands to integrins” (GILEAD SCIENCES, INC., published 2002).

Molecular target: integrin alphaV beta3 (Homo sapiens, UniProt P06756;P06756;P05106 P06756:31-889,P06756:891-1048,P05106:27-788)
Assay: microtiter plate, streptavidin-AP; Mg2+, Ca2+, Mn2+, pH 7.5, 37 C
Settings: label: 5'-biotin
Description: The affinity of individual RNAs and RNA pools for αᵥβ₃ was determined by titration of biotinylated RNA with a small quantity of immobilized integrin. Bound RNA was detected through the biotin moiety. Biotinylated RNA was prepared according to standard transcription protocols, but including a 5-fold molar excess of a 5′-biotin-modified GMP over GTP in the reaction mixture. Methods for synthesizing 5′-biotin-modified guanosine nucleotides are described in WO 98/30720 entitled “Bioconjugation of Oligonucleotides,” specifically incorporated herein by reference in its entirety. The modified nucleotide is incorporated at the 5′ end of the transcript in proportion to its representation in the guanosine pool. 96-well microtiter plates (Immulon 2, Dynatech Laboratories, Inc., Chantilly, Va.) were coated overnight at 4° C. with 100 μL purified αᵥβ₃ at a concentration of 0.25 μg/mL in 20 mM TrisHCl, pH 7.5, 150 mM NaCl, 1 mM MgCl₂, 2 mM CaCl₂, 0.1 mM MnCl₂. Coating concentrations were 0.8 μg/mL for αIIbβ₃ and 0.3 μg/mL for αᵥβ₅. Wells were blocked with 200 μL of a solution of 3% BSA in the same buffer (1 hour at room temperature) then rinsed 3 times with 200 μL binding buffer (50 mM TrisHCl, pH 7.5, 137 mM NaCl, 2.7 mM KCl, 1 mM MgCl₂, 2 mM CaCl₂, 0.1 mM MnCl₂, 0.1% BSA). Individual RNAs or RNA pools were denatured briefly at 93° C. in binding buffer without divalent cations or BSA, then serially diluted in the same buffer. 50 μL binding buffer containing 2×-concentrations of divalent cations and BSA were added to each well, followed by 50 μL RNA dilution. RNAs were allowed to incubate in the integrin-coated wells at 37° C. for 30-60 minutes. Unbound RNAs were removed by 3 rapid washes in binding buffer. To detect bound RNA, 100 μL of a 1:2500 dilution in binding buffer of streptavidin-alkaline phosphatase conjugate (Calbiochem) were incubated in each well for 30 minutes at room temperature, followed by three rapid washes, as above. 100 μL/well p-nitrophenyl phosphate (Sigma Chemical Co., St. Louis, Mo.) was added and incubated at room temperature for 30 minutes. Color development was monitored by absorbance at 405 nm.

Sequence of integrin alphaV beta3 (P06756 31-889, chain 1 of 3): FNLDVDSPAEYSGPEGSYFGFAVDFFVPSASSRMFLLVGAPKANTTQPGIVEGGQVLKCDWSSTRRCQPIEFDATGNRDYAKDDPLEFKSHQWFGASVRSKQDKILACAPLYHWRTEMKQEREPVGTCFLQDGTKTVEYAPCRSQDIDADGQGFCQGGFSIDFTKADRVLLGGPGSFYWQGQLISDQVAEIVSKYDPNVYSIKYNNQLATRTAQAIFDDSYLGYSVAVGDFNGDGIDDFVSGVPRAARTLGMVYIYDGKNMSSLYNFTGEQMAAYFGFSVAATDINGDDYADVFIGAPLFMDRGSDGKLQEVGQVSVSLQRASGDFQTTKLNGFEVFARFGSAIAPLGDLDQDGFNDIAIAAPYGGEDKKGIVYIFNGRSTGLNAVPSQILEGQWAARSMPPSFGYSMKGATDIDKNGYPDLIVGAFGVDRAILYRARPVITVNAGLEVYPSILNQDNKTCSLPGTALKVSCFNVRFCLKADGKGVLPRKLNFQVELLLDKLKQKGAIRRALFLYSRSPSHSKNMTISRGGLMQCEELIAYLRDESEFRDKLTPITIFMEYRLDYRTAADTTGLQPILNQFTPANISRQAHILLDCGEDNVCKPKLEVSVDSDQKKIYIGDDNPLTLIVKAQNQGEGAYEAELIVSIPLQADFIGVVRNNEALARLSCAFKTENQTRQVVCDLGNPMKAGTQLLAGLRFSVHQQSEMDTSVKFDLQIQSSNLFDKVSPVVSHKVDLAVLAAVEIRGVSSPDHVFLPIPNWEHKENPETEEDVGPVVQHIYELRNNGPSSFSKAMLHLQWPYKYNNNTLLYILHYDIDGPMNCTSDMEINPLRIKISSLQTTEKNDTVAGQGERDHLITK
Sequence of integrin alphaV beta3 (P06756 891-1048, chain 2 of 3): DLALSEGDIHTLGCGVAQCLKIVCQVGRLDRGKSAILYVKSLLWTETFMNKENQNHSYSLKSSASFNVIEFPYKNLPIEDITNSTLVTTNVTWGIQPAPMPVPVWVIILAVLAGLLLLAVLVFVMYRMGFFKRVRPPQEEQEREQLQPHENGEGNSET
Sequence of integrin alphaV beta3 (P05106 27-788, chain 3 of 3): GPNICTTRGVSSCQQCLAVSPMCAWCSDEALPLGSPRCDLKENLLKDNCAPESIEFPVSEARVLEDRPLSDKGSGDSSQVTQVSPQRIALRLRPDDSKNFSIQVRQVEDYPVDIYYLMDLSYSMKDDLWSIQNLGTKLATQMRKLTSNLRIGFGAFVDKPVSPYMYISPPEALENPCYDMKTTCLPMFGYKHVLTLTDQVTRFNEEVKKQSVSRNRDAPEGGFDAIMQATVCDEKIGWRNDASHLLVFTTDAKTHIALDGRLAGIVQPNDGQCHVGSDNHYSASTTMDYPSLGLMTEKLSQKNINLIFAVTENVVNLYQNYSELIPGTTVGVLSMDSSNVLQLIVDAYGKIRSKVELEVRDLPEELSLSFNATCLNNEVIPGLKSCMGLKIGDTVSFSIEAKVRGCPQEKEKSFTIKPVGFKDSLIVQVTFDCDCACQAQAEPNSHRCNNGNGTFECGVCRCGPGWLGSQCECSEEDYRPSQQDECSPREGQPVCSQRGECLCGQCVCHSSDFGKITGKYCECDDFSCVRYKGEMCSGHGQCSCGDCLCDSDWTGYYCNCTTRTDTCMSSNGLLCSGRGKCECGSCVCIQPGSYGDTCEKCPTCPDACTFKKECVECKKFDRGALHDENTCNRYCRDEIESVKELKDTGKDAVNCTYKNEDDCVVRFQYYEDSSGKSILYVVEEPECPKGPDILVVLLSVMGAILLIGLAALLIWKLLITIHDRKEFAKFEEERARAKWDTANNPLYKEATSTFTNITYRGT

B1: 15.5 (ssRNA)
RNA: GGGAGACAAGAAUAAACGCUCAAGCAUUCAAAAUUUGCGAGAACGAAUAGAAGUCCGAGAGCCUUCGACAGGAGGCUCACAACAGGC
modifications: 2'-F C and U
Q: For B1, which Kd is on record?
A: The Kd was 4000 nM.

B2: 15.39 (ssRNA)
RNA: GGGAGACAAGAAUAAACGCUCAAUCAAUCUCGGACUAGACUAACGACCUUGGUUGACGCUCAUUCGACAGGAGGCUCACAACAGGC
modifications: 2'-F C and U
Q: With B2 as the binder, how does the Kd read?
A: The Kd was 410 nM.

B3: 15.21 (ssRNA)
RNA: GGGAGACAAGAAUAAACGCUCAACGGUGAAGACCUCUAUUAACAACAUGACCUGCCUGCGUUGUUCGACAGGAGGCUCACAACAGGC
modifications: 2'-F C and U
Q: Which Kd does the source give for B3 here?
A: Its Kd is 200 nM.

B4: 15.34 (ssRNA)
RNA: GGGAGACAAGAAUAAACGCUCAAUCCCACCCUGCCUUGUCUGUUUGAUAGAGACACUGUCCUUUUCGACAGGAGGCUCACAACAGGC
modifications: 2'-F C and U
Q: How did the Kd turn out when B4 was run?
A: The Kd was 190 nM.

B5: 15.18 (ssRNA)
RNA: GGGAGACAAGAAUAAACGCUCAAUUCAACGCUGUGAAGGGCUUAUAUGAGCGGAUUACCCUUCGACAGGAGGCUCACAACAGGC
modifications: 2'-F C and U
Q: B5 was tested. Which Kd did it give?
A: The Kd was 2 nM.

B6: 15.50 (17.3) (ssRNA)
RNA: GGGAGACAAGAAUAAACGCUCAAUUCGACGCUGUGAAGGGCUUAUACGAGCGGAUUACCCUUCGACAGGAGGCUCACAACAGGC
modifications: 2'-F C and U
Q: Which Kd does the source give for B6 here?
A: Its Kd is 30 nM.

B7: 17.11 (ssRNA)
RNA: GGGAGACAAGAAUAAACGCUCAAUUCUACGCUGUGAAGGGCUUAUAUGAGCGAAUUACCCUUCGACAGGAGGCUCACAACAGGC
modifications: 2'-F C and U
Q: B7 was tested. Which Kd did it give?
A: Its Kd is 4 nM.

B8: 17.2 (ssRNA)
RNA: GGGAGACAAGAAUAAACGCUCAAUUCUACGCUGUGAAGGGCUUAUAUGAGCGGAUUACCCUUCGACAGGAGGCUCACAACAGGC
modifications: 2'-F C and U
Q: Which Kd does the source give for B8 here?
A: The Kd was 2 nM.

B9: 15.46 (17.20) (ssRNA)
RNA: GGGAGACAAGAAUAAACGCUCAAUUCGACGCUGUGAAGGGCUUAUAUGAGCGGAUUACCCUUCGACAGGAGGCUCACAACAGGC
modifications: 2'-F C and U
Q: With B9 as the binder, how does the Kd read?
A: Its Kd is 40 nM.

B10: 15.19 (ssRNA)
RNA: GGGAGACAAGAAUAAACGCUCAAUGUAGCCGCAUGUCGAGCAGCAAUUCCUGCCAUUGUAGGUUCGACAGGAGGCUCACAACAGGC
modifications: 2'-F C and U
Q: With B10 as the binder, how does the Kd read?
A: The Kd was 770 nM.

B11: 7.13 (ssRNA)
RNA: GGGAGACAAGAAUAAACGCUCAAUGUAGUCGCAUGUCGAGCAGCAAUUCCUGCCAUUGUAGGUUCGACAGGAGGCUCACAACAGGC
modifications: 2'-F C and U
Q: How did the Kd turn out when B11 was run?
A: The Kd was greater than 1000 nM.

B12: 15.20 (ssRNA)
RNA: GGGAGACAAGAAUAAACGCUCAAUUCAACGCUGUCCAAGGGCUUAUAUGAGCGCAUUAUACCCUUCGACAGGAGGCUCACAACAGGC
modifications: 2'-F C and U
Q: Which Kd does the source give for B12 here?
A: Its Kd is 20 nM.

B13: 15.53 (ssRNA)
RNA: GGGAGACAAGAAUAAACGCUCAAUUCAACGCUGUCCUAGGGCUUAUAUGAGCGCAGGAUACCCUUCGACAGGAGGCUCACAACAGGC
modifications: 2'-F C and U
Q: How did the Kd turn out when B13 was run?
A: Its Kd is 70 nM.

B14: 7.38 (ssRNA)
RNA: GGGAGACAAGAAUAAACGCUCAAUUCAACGCUGUCCAAGGGCUUAUAUGAGCGCGUUAUACCCUUCGACAGGAGGCUCACAACAGGC
modifications: 2'-F C and U
Q: Which Kd does the source give for B14 here?
A: Its Kd is 49 nM.

B15: 7.54 (ssRNA)
RNA: GGGAGACAAGAAUAAACGCUCAAUUCGACGCUGUUCAAGGGCUUAUAUGAGCGCGUUAUACCCUUCGACAGGAGGCUCACAACAGGC
modifications: 2'-F C and U
Q: For B15, which Kd is on record?
A: The Kd was 230 nM.

B16: 7.77 (ssRNA)
RNA: GGGAGACAAGAAUAAACGCUCAAUUCAACGAUGUUGAGGGGCUUAUAUGAGCGCAUUAUACCCUUCGACAGGAGGCUCACAACAGGC
modifications: 2'-F C and U
Q: With B16 as the binder, how does the Kd read?
A: The Kd was 770 nM.

B17: 15.4 (ssRNA)
RNA: GGGAGACAAGAAUAAACGCUCAAUGAUUUCAUGACUUAUGCCGCCGGCAUGACUUCAAUGACGUUCGACAGGAGGCUCACAACAGGC
modifications: 2'-F C and U
Q: How did the Kd turn out when B17 was run?
A: Its Kd is 2000 nM.

B18: 15.43 (ssRNA)
RNA: GGGAGACAAGAAUAAACGCUCAACGCCGUUAUCACGACGUGCGUUCUGGGCGGUACUCGCGCAUUCGACAGGAGGCUCACAACAGGC
modifications: 2'-F C and U
Q: Which Kd does the source give for B18 here?
A: Its Kd is 45 nM.

B19: 7.41 (ssRNA)
RNA: GGGAGACAAGAAUAAACGCUCAAGCGAGCCUAUUGUCUAAGAUGCACCAGGCCUGUUAAGCAUUUCGACAGGAGGCUCACAACAGGC
modifications: 2'-F C and U
Q: Which Kd does the source give for B19 here?
A: The Kd was greater than 1000 nM.

B20: 15.3 (17.17) (ssRNA)
RNA: GGGAGACAAGAAUAAACGCUCAAUUCAACGUUGUCCAAGGGCUUAUAUGAGCGGAUUACCCUUCGACAGGAGGCUCACAACAGGC
modifications: 2'-F C and U
Q: With B20 as the binder, how does the Kd read?
A: The Kd was 8 nM.

B21: 17.1 (ssRNA)
RNA: GGGAGACAAGAAUAAACGCUCAAUUCAACGCUGUCAAAGGGCUUAUAUAAGCGGAUUACCCUUCGACAGGAGGCUCACAACAGGC
modifications: 2'-F C and U
Q: With B21 as the binder, how does the Kd read?
A: Its Kd is 380 nM.

B22: 15.10 (ssRNA)
RNA: GGGAGACAAGAAUAAACGCUCAAUUCAACGCUGUUCAAGGGCUUAUAUGAGCGGAUUACCCUUCGACAGGAGGCUCACAACAGGC
modifications: 2'-F C and U
Q: B22 was tested. Which Kd did it give?
A: Its Kd is 20 nM.

B23: 15.8 (ssRNA)
RNA: GGGAGACAAGAAUAAACGCUCAAUUCGACGCUGUUGAAGGGCUUAUACGAGCGGAUUACCCUUCGACAGGAGGCUCACAACAGGC
modifications: 2'-F C and U
Q: Which Kd does the source give for B23 here?
A: Its Kd is 5 nM.

B24: 17.13 (ssRNA)
RNA: GGGAGACAAGAAUAAACGCUCAAUUCAACGCUGUCCAAGGGCUUAUAUGGGCGGAUUACCCUUCGACAGGAGGCUCACAACAGGC
modifications: 2'-F C and U
Q: With B24 as the binder, how does the Kd read?
A: The Kd was 10 nM.

B25: 15.7 (ssRNA)
RNA: GGGAGACAAGAAUAAACGCUCAAUUCUACGAUGUCAAAGGGCUUAUAUGAGCGGAUUACCCUUCGACAGGAGGCUCACAACAGGC
modifications: 2'-F C and U
Q: For B25, which Kd is on record?
A: Its Kd is 5 nM.

B26: 17.8 (ssRNA)
RNA: GGGAGACAAGAAUAAACGCUCAAUUCAACGUUGUCUAAGGGCUUAUAUGAGCGGAUUACCCUUCGACAGGAGGCUCACAACAGGC
modifications: 2'-F C and U
Q: With B26 as the binder, how does the Kd read?
A: Its Kd is 18 nM.

B27: 15.17 (ssRNA)
RNA: GGGAGACAAGAAUAAACGCUCAAUUCAACGUUGUCAAAGGGCUUAUACGGGCGGAUUACCCUUCGACAGGAGGCUCACAACAGGC
modifications: 2'-F C and U
Q: Which Kd does the source give for B27 here?
A: Its Kd is 4 nM.

B28: 7.5 (ssRNA)
RNA: GGGAGACAAGAAUAAACGCUCAAGGUAGUAAAUGGACUCCUGCCAUCCAAUACUAUCUCUGAGUUCGACAGGAGGCUCACAACAGGC
modifications: 2'-F C and U
Q: How did the Kd turn out when B28 was run?
A: The Kd was greater than 1000 nM.

B29: 7.66 (ssRNA)
RNA: GGGAGACAAGAAUAAACGCUCAAGUGAACCGAUAAGCGAAAGUAGUACCCCUGCUUGACUACUUUCGACAGGAGGCUCACAACAGGC
modifications: 2'-F C and U
Q: Which Kd does the source give for B29 here?
A: Its Kd is greater than 1000 nM.

B30: 15.13 (ssRNA)
RNA: GGGAGACAAGAAUAAACGCUCAAGCGGGAUUUUCCUGAUCAUCCCACUGAUUCGGGGCCUUACUUCGACAGGAGGCUCACAACAGGC
modifications: 2'-F C and U
Q: How did the Kd turn out when B30 was run?
A: Its Kd is 790 nM.
